The values below come from patent US20110294195A1.

For the assay, the target named is CD81 on Huh7.5 cells (human) (UniProt P60033). The experiment in a line: cell-based or functional assay.
Sequence of UniProt P60033 (P60033 whole entry): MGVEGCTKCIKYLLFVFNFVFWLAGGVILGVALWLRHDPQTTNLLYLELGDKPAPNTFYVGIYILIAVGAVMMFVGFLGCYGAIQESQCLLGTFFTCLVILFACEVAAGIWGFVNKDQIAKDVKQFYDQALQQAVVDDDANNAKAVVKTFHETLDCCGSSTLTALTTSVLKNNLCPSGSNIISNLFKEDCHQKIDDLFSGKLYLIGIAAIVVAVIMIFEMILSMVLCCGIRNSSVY

With “anti-CD81 (JS-81; BD Biosciences Pharmingen, Franklin Lakes, N.J.) (antibody)”, the % inhibition of infection of Huh7.5 cells (FFU) with genotype 2a recombinant J6/JFH1 at 0.02 µg/mL anti-CD81 is less than 50 % inhibition, the % inhibition of infection of Huh7.5 cells (FFU) with genotype 2a recombinant J6/JFH1 at 2.5 µg/mL anti-CD81 was greater than 90 % inhibition, the % inhibition of infection of Huh7.5 cells (FFU) with genotype 7a recombinant QC69/JFH1 at 0.02 µg/mL anti-CD81 is less than 50 % inhibition and the % inhibition of infection of Huh7.5 cells (FFU) with genotype 7a recombinant QC69/JFH1 at 2.5 µg/mL anti-CD81 is greater than 90 % inhibition.
